The results in this text go back to US20180057590A1 (VAL CHUM LIMITED PARTNERSHIP, published 2018).

In this experiment the target is T1, human Dual Ig domain containing cell adhesion molecule (DICAM) (human, UniProt Q9BRK3 20-442).
T1 construct: Assayed as endogenous DICAM of THP-1 cells and TH17 lymphocytes, and as human DICAM from vector pCMV6-neo-DICAM in NIH3T3 and NS0 cells; It stood on the cell surface in flow cytometry and in cell lysate in Western blot; also called limitrin; Matrix-remodeling-associated protein 8
T1 sequence: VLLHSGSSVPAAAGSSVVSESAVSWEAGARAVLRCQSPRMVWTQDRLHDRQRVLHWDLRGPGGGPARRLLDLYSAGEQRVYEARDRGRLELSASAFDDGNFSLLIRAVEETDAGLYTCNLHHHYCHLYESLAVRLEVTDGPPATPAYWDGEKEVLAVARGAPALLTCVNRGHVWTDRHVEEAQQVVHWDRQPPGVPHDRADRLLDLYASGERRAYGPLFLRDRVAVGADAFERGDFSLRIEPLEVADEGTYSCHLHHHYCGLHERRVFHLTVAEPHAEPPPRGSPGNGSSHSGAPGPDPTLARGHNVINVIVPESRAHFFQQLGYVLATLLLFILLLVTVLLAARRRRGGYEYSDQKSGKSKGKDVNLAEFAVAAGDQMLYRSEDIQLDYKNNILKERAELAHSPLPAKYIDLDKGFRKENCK
Description: Western blot (Table III). As to the method: THP-1 cells express DICAM as determined by qPCR and confirmed by WB (see Jung et al., Journal of Bone and Mineral Research, Vol. 27, No. 9, pp 2024-2034, 2012). THP-1 cell lysate (30 μg) were loaded on 12% SDS-PAGE gel and electrophoresed for 90 min at 100V and transferred to PVDF membranes. Hybridoma from clone 3C2, 2C11, 2H12, 9E9 and 1B2 (N-terminal DICAM epitope 57-71) or from clone 7F8, 1D9, 4B8 and 1D4 (C-terminal DICAM epitope 372-385) were incubated at 4° C. (50 μg/ml) for 12 h. Secondary antibody is goat anti-mouse pan-IgG coupled to HRP (1/2000 dilution). Actin is shown as a loading control. N=4
Characterization of anti-DICAM antibodies by Western blot THP-1 and NIH3T3 cells transfected with human DICAM-encoding vector (pCMV6-neo) or with empty vector (pCMV6-neo) cell lysate ([…]) were loaded on 12% SDS-PAGE gel and electrophoresed for 90 min at 100V and transferred to PVDF membranes. […] N=4 by standard SDS-PAGE and immunoblots were analyzed with anti-DICAM (Goat; 1:100 dilution; sc-163102; Santa Cruz Biotechnology®); horseradish peroxidase-conjugated anti-goat (1:1,000 dilution; P00448; DakoCytomation®) and the ECL system (Amersham Biosciences®) were used to detect specific binding, and anti-actin (1:5,000 dilution; AC-15; MP Biomedicals®) served as a loading control. […]
On the technique in general: In western blotting, separated proteins are transferred to a membrane and probed.

B1: anti-DICAM monoclonal antibody clone 9E9 (antibody, mouse IgG1, V domains shown)
VH: EVQLVESGGGLVKPGGSLKLSCAASGFTFISYAMSWVRQTPEKRLEWVATISSGGSYTYYPHSVKGRFTISRDNARNTLYLQMSSLRSEDTAMYYCARLDGPSYAMDYWGQGTSVTVS
VL: QIVLTQSPAIMSAFLGEEITLTCSASSSVSYMHWYQQKSGTSPKLLIYSTSNLASGVPSRFSGSGSGTFYSLTISSVEAEDAADYYCHQWSSYRTFGGGTKLEIKR
notes: Mouse hybridoma antibody, murine IgG1 heavy chain and kappa light chain; also called mAb clone 9E9; hybridoma clone 9E9
Turning to B1, the binding result was “binds”.
